Source: patent US20200353078A1 (AstraZeneca / MedImmune, published 2020)
Substitutions are numbered along the chain they refer to. One block for each binder: values may come before it.

Experiments:
His10/Avi Human IL33-01 [1] = molecular target: T1, His10/Avi Human IL33-01 (human); assay: HTRF epitope competition, scFv titrated; competitor DyLight labelled 33v20064 IgG
T1 construct: Wild type mature IL-33 with N-terminal 10xHis, Avitag and Factor Xa site; biotinylated by BirA on the Avitag where used biotinylated; reduced form unless treated; also called N-terminal His Avi IL-33; His-Avi human IL-33 wild type
T1 chain: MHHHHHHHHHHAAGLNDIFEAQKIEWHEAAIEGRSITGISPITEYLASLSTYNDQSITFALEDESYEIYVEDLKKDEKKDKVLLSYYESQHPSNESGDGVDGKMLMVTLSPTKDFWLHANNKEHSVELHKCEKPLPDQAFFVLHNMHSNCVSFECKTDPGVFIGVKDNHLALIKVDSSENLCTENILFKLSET
Description: (§1) This was followed by the addition of 2.5 microlitres of a solution containing 0.8 nM biotinylated human IL-33-01 combined with 0.75 nM streptavidin cryptate detection (Cisbio International, 610SAKLB) for the human assay or a solution containing 4 nM biotinylated cynomolgus IL-33 combined with 1.5 nM streptavidin cryptate detection (Cisbio International, 610SAKLB) for the cynomolgus assay. All dilutions were performed in assay buffer containing 0.8 M potassium fluoride (VWR, 26820.236) and 0.1% bovine serum albumin (BSA, PAA, K05-013) in Dulbeccos PBS (Invitrogen, 14190185). Assay plates were incubated for 1 hour at room temperature and time resolved fluorescence was read at 620 nm and 665 nm emission wavelengths using an EnVision plate reader (Perkin Elmer). Data were analysed by calculating the 665/620 nm ratio followed by the % Delta F values for each sample. The 665/620 nm ratio was used to correct for sample interference using Equation 1. The % Delta F for each sample was then calculated using Equation 2. The negative control (non-specific binding) was defined by replacing biotinylated IL-33 combined with streptavidin cryptate detection with streptavidin cryptate detection only. The % Delta F values were subsequently used to calculate % specific binding as described in Equation 3.
(§2) Unique scFv were expressed again in bacteria and purified by affinity chromatography (as described in WO01/66754). Purified anti-IL-33 antibody samples were tested for potency of inhibition by competing a dilution series of the purified preparation against DyLight labelled 33v20064 IgG or DyLight labelled 33_640027 IgG for binding to biotinylated His Avi IL33-01, biotinylated His Avi IL33-11 or biotinylated His Avi cynomolgus IL-33. Methods are as described in the previous section.

His10/Avi Human IL33-11 = molecular target: T2, His10/Avi Human IL33-11 (human); assay: as above
T2 construct: C208S, C259S mutant (already in the entry), N-terminal His10/Avitag; also called His-Avi mutant IL-33; SCCS
T2 chain: T1 chain with C131S, C182S
Description: as §1, §2

His10/Avi Cyno IL-33 [2] = molecular target: T3, His10/Avi Cyno IL-33 (cynomolgus monkey); assay: as above
T3 construct: also called Cynomolgus 10His Avitag IL-33; biotinylated His Avi cynomolgus IL-33
T3 chain: T1 chain with E77K, N94S, H118Q, M146R, H147S, S148F, S177Y, C182G, T183S, T193I
Description: as §1, §2

His10/Avi Human IL33-01 [3] = molecular target: T1, His10/Avi Human IL33-01; assay: HTRF epitope competition, scFv titrated; competitor DyLight labelled 33_640027 IgG
His10/Avi Cyno IL-33 [4] = molecular target: T3, His10/Avi Cyno IL-33; assay: as above
[5] = molecular target: T4, Full-length human IL-33 (amino acids 1-270), HEK293-EBNA cell lysate (human, UniProt O95760 1-270); assay: cell-based or functional assay
T4 sequence (looked up): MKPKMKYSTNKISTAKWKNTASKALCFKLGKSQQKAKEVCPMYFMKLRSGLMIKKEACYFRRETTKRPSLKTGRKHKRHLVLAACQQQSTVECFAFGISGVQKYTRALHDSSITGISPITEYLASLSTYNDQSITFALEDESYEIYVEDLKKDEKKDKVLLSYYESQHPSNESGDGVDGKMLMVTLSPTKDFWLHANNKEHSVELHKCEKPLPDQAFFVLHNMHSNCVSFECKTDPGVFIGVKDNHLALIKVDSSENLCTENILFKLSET

His10/Avi Human IL33-01 [6] = molecular target: T1, His10/Avi Human IL33-01; assay: HTRF epitope competition, IgG titrated; competitor DyLight labelled 33_640117 IgG; 1 hour
Description: (§3) As the epitope competition assay utilising 33_640027 reached its limit of sensitivity, an assay using 33_640117 was used for testing purified scFv samples. The assay was essentially as described for the 33v20064 competition assay with the following modifications: 2.5 nM DyLight labelled 33_640117 was prepared and 2.5 microlitres added to the assay plates. This was followed by the addition of 2.5 microlitres of a solution containing 0.12 nM biotinylated human IL-33-01 combined with 0.75 nM streptavidin cryptate detection (Cisbio International, 610SAKLB) for the human assay or a solution containing 0.24 nM biotinylated cynomolgus IL-33 combined with 1.5 nM streptavidin cryptate detection (Cisbio International, 610SAKLB) for the cynomolgus assay. Fluorescence was read after one hour and overnight incubation.
(§4) The ability of anti-IL-33 antibodies to inhibit the binding of biotinylated His Avi human IL-33 or cynomolgus His Avi IL-33 to the DyLight labelled 33_640117 IgG was assessed in a biochemical HTRF® (Homogeneous Time-Resolved Fluorescence, Cisbio International) competition assays as described above.

His10/Avi Cyno IL-33 [7] = molecular target: T3, His10/Avi Cyno IL-33; assay: as above
Description: as §3, §4

His10/Avi Human IL33-01 [8] = molecular target: T1, His10/Avi Human IL33-01; assay: HTRF epitope competition, IgG titrated; competitor DyLight labelled 33_640117 IgG; overnight
Description: as §3, §4

[9] = molecular target: T5, Human IL-33 (Axxora/Adipogen AG-40B-0038) (human, UniProt O95760 112-270, limits assumed); assay: cell-based or functional assay
T5 sequence (looked up): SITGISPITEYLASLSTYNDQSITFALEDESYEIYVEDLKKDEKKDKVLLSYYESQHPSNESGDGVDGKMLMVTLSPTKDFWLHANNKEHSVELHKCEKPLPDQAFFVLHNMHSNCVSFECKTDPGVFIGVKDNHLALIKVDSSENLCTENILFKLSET

[10] = molecular target: T6, Human IL-33 (Axxora/Alexis ALX-522-098) (human, UniProt O95760 112-270); assay: cell-based or functional assay
T6 sequence (looked up): T5 sequence (looked up)

Human IL-33 Flag®His = molecular target: T7, Human IL-33 Flag®His (human); assay: ELISA, biotinylated antigen on streptavidin plate, anti-human IgG HRP
T7 construct: Mature IL-33 with C-terminal FLAG 10xHis tag, from E. coli; biotinylated via free cysteines where used biotinylated; also called Mature Human IL-33_FH; human IL-33 FH
T7 chain: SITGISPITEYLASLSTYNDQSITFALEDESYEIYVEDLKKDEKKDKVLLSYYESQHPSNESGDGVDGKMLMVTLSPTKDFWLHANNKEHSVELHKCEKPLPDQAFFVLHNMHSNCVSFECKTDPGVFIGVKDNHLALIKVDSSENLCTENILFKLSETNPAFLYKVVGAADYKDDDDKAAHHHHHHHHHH
Description: (§5) 96-well Greiner polypropylene plates (Greiner, 650201) were used for dilution preparation. Generally, each dilution was prepared in duplicate. IgG dilutions were allowed to block in PBS-M for 1 hour at room temperature before being used directly in ELISA experiments.
(§6) Streptavidin plates (Thermo Scientific, AB-1226) were coated with biotinylated antigen at 0.5 μg/ml in PBS and incubated overnight at 4° C. Plates were washed 3× with PBS and blocked with 300 μl/well blocking buffer (PBS-M) for 1 hour. Plates were washed 1× with PBS and blocked samples added, 50 μl/well for 1 hour at room temperature. […] Plates were washed 3× with PBS-T and developed with TMB, 50 μl/well (Sigma, T0440). The reaction was quenched with 50 μl/well 0.1M H2504 before reading on an EnVision™ plate reader, or similar equipment, at 450 nm.
(§7) Species cross-reactivity of anti-IL-33 antibodies was determined using a plate-based ELISA. Streptavidin plates (Thermo Scientific, AB-1226) were coated with biotinylated antigen at 0.5 μg/ml in PBS. Binding of purified IgG preparations was detected with anti-human IgG HRP (Sigma, A0170).

[11] = molecular target: T8, Cynomolgus IL-33 Flag®His (cynomolgus monkey); assay: as above
T8 construct: C-terminal FLAG 10xHis tag, E. coli; also called Mature Cynomolugus IL-33; cyno IL-33 FH
T8 chain: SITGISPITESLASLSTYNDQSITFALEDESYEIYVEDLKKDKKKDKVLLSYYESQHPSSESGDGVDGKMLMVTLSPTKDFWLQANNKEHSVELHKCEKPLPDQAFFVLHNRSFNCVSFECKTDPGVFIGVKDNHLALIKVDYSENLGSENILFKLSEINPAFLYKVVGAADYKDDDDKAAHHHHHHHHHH
Description: as §5, §6, §7

Mouse IL-33 Flag®His = molecular target: T9, Mouse IL-33 Flag®His (mouse); assay: as above
T9 construct: C-terminal FLAG 10xHis tag, E. coli; also called Mature Mouse IL-33_FH; mouse IL-33 FH
T9 chain: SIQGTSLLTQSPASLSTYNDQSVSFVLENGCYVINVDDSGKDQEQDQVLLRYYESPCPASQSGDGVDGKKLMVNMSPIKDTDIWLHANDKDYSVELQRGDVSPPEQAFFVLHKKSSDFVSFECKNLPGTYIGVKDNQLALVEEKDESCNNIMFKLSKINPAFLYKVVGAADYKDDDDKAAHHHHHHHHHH
Description: as §5, §6, §7

Endogenous human IL-33 = molecular target: T10, Endogenous human IL-33 (human, UniProt O95760 1-270, limits assumed); assay: cell-based or functional assay
T10 sequence (looked up): T4 sequence (looked up)

B3: IL330107 IgG (antibody, V domains shown)
VH: QMQLVQSGGGVVQPGGSLRLSCAASGFTFSSYAMSWVRQAPGKGLEWVSAISGSGGSTYYADSVKGRFTISRDNSKNTLYLQMNSLRAEDTAVYYCAKPFPSYWYFDLWGKGTLVTVSS
VL: SYVLTQPPSVSVSPGQTARITCSGDALPKQYAYWYQQKPGQAPVLVIYKDSERPSGIPERFSGSSSGTTVTLTISGVQAEDEADYYCQSADSSGTYRVFGGGTQLTVL
notes: IgG1 or IgG1-TM
IC50 (geomean), Mast cell IL-6 production [9]: 283 nM | IC50, TF-1 proliferation [10]: 94 nM | EC50 (Human IL-33 Flag®His): 0.86 nM | EC50 [11]: 1.09 nM | EC50 (Mouse IL-33 Flag®His): 0.83 nM

B4: Human ST2-Fc (R&D Systems, or source not stated in the example) (Fc fusion, UniProt Q01638 19-328, looked up, not shown: a dimerising Fc or GST)
chain: KFSKQSWGLENEALIVRCPRQGKPSYTVDWYYSQTNKSIPTQERNRVFASGQLLKFLPAAVADSGIYTCIVRSPTFNRTGYANVTIYKKQSDCNVPDYLMYSTVSGSEKNSKIYCPTIDLYNWTAPLEWFKNCQALQGSRYRAHKSFLVIDNVMTEDAGDYTCKFIHNENGANYSVTATRSFTVKDEQGFSLFPVIGAPAQNEIKEVEIGKNANLTCSACFGKGTQFLAAVLWQLNGTKITDFGEPRIQQEEGQNQSFSNGLACLDMVLRIADVKEEDLLLQYDCLALNLHGLRRHTVRLSRKNPIDHHS
IC50, Huvec IL-8 release stimulated by human lung lysate (Endogenous human IL-33): 0.019 nM | IC50, Huvec IL-8 assay vs. full length IL-33 cell lysate [5]: 0.67 nM

Results, then the binder that gave them:

IC50 (His10/Avi Human IL33-01 [1]): 0.4 nM | IC50 (His10/Avi Human IL33-11): 0.5 nM | IC50 (His10/Avi Cyno IL-33 [2]): 2.7 nM | IC50 (His10/Avi Human IL33-01 [3]): 2.3 nM | IC50 (His10/Avi Cyno IL-33 [4]): 8.8 nM
B1: 33_640047 scFv (scFv, V domains shown)
VH: EVQLLESGGGLVQPGGSLRLSCAASGFTFSSYAMSWVRQAPGKGLEWVSAISGSGGSTYYADSVKGRFTISRDNSKNTLYLQMNSLRAEDTAVYYCTRLKFMQLWGGGLRYPFGYWGQGTMVTVSS
VL: SYVLTQPPSVSVSPGQTASITCSGERMGDKYAAWYQQKPGQSPVLVIYQDTKRPSGIPERFSGSNSGNTATLTISGTQAMDEADYYCQVWDSSTGVFGGGTKVTVL
notes: Single chain Fv; also called ZZ1F7P-E01

IC50, Huvec IL-8 assay vs. full length IL-33 cell lysate [5]: 185 nM | IC50 (His10/Avi Human IL33-01 [6]): 150 nM | IC50 (His10/Avi Cyno IL-33 [7]): 788 nM | IC50 (His10/Avi Human IL33-01 [8]): 689 nM
B2: 33v20064 IgG1 (antibody, V domains shown)
VH: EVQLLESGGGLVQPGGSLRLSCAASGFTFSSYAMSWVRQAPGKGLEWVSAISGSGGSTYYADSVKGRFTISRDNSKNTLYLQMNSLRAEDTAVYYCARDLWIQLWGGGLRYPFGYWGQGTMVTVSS
VL: B1 VL with S1L, Y2P, T17K, V44I, A79D
notes: IgG1; also called ZZ1EBX-E05
